Drawing on patent US20140094415A1, this text covers Kd and Ki for three molecules.

Assay [1] deals with T1, HIS-PDZ1-2 protein (PSD-95 PDZ1-2 tandem) (human), P78352. Briefly: fluorescence polarization, saturation binding: increasing PDZ1-2 on 0.5 nM probe. (In general: Polarisation of emitted light reports the rotation of a fluorescent probe.)
Assay [2] concerns the target T1, HIS-PDZ1-2 protein (PSD-95 PDZ1-2 …). Briefly: fluorescence polarization, heterologous competition against AB143 probe.
For assay [3] the target is unchanged. The assay is described as above. This is another data set of the same source.

Where two headings read alike, the source gives them in different places. Where no end group is shown, it is not given here.

B1: 5-FAM-labeled NPEG4(IETAV)2 probe, AB143 (peptide)
peptide: IETAV
modifications: also: dimer: two IETAV chains on NPEG4 scaffold, 5-FAM label, position not given here
With B1, the Kd (commonly the concentration at which binding is half-saturated) in assay [1] was 7.8 nM. In the case of IETAV (modifications not checked) [PEG4(IETAV)2 (AB125)], in assay [2], the Ki (usually the dissociation constant of the complex between target and ligand, obtained from inhibition or displacement) was determined as 9.5 nM.

Consider IETAV (modifications not checked) [NPEG4(IETAV)2 (AB141)], for which the Ki in assay [2] amounted to 9.5 nM; in assay [3] it was 9.3 nM.
